Kd data for one molecule are collected here from publication PMC10855902 (International Journal of Molecular Sciences, 2024).

Settings in all cases: both partners purified
Experiment [1] addresses T1, Recombinant human EGFR protein (Active) (ab155639) (human, UniProt P00533 25-645, labelled with RED-tris-NTA 2nd Generation dye).
T1 construct: epidermal growth factor receptor (EGFR, ErbB-1), human, recombinant; also called EGF receptor; ErbB-1; source: bought: Abcam (ab155639), recombinant
Nature of the experiment: MST; RED-tris-NTA-labelled EGFR 25 nM, ligand in a 16-step 1:1 dilution series in PBS-T, 30 min at room temperature; assay concentration of the ligand 5 mM.

In experiment [2] the target is T1, Recombinant human EGFR protein (Active) …. Nature of the experiment: MST; RED-tris-NTA-labelled EGFR 25 nM, ligand in a 16-step 1:1 dilution series in PBS-T, 30 min at room temperature; assay concentration of the ligand 10 mM.
The target is the same in experiment [3]. In words: MST; RED-tris-NTA-labelled EGFR 25 nM, ligand in a 16-step 1:1 dilution series in PBS-T, 30 min at room temperature; assay concentration of the ligand 50 μM.
For experiment [4] the target is unchanged. Nature of the experiment: MST; RED-tris-NTA-labelled EGFR 25 nM, ligand in a 16-step 1:1 dilution series in PBS-T, 30 min at room temperature; assay concentration of the ligand 100 μM.
Experiment [5] has the same target. In words: MST; RED-tris-NTA-labelled EGFR 25 nM, ligand in a 16-step 1:1 dilution series in PBS-T, 30 min at room temperature; assay concentration of the ligand 2.5 mM.
The target is the same in experiment [6]. In words: MST; RED-tris-NTA-labelled EGFR 25 nM, ligand in a 16-step 1:1 dilution series in PBS-T, 30 min at room temperature; assay concentration of the ligand 250 μM.
For experiment [7] the target is unchanged. In words: MST; RED-tris-NTA-labelled EGFR 25 nM, ligand in a 16-step 1:1 dilution series in PBS-T, 30 min at room temperature; assay concentration of the ligand 6.02 mM.

B1: EGF fragment 10–15 (HDGYCL) (peptide)
peptide: HDGYCL
notes: EGF, human, residues 10-15; numbers count on: the mature protein; also called 10–15 EGF fragment; source: synthetic peptide (SPPS, Fmoc; crude, without preparative HPLC)
Take B1: the Kd in experiment [1] was 663 µM; in experiment [2] it was 533 µM; in experiment [3], 0.0664 µM; in experiment [4], 0.0174 µM; in experiment [5], 431 µM; in experiment [6] it was 48.4 µM. Further, in experiment [7], the Kd stood at 715 µM.
